How the values were obtained:
[1] = target: T1, recombinant DPP9-short (His-tagged DPP9 wild type) (UniProt Q86TI2 1-863); experiment: SPR; His-tagged DPP9 captured on a Ni2+ chelator chip (2500 to 3500 µRIU); peptide injected at 16 µM to 0.125 µM (Syk 1–31) or 32 µM to 1 µM (Syk 3–31); 20 mM Hepes, 150 mM NaCl, 0.005% Tween 20, 50 µM EDTA, pH 7.4; 40 µl/min; equilibrium binding analysis; conditions: both partners purified
T1 construct: DPP9, short isoform (DPP9-short); The His tag is named only for the SPR experiment; also called DPP9 wt; dipeptidylpeptidase 9

[2] = target: T2, DPP9 S730G (inactive DPP9 variant) (UniProt Q86TI2 1-863, S730G); experiment: as above; conditions: both partners purified
T2 construct: DPP9 with the active-site serine mutated to glycine; Parent construct is surmised to be DPP9-short as in m1; source: recombinant
T2 sequence (Q86TI2 whole entry S730G): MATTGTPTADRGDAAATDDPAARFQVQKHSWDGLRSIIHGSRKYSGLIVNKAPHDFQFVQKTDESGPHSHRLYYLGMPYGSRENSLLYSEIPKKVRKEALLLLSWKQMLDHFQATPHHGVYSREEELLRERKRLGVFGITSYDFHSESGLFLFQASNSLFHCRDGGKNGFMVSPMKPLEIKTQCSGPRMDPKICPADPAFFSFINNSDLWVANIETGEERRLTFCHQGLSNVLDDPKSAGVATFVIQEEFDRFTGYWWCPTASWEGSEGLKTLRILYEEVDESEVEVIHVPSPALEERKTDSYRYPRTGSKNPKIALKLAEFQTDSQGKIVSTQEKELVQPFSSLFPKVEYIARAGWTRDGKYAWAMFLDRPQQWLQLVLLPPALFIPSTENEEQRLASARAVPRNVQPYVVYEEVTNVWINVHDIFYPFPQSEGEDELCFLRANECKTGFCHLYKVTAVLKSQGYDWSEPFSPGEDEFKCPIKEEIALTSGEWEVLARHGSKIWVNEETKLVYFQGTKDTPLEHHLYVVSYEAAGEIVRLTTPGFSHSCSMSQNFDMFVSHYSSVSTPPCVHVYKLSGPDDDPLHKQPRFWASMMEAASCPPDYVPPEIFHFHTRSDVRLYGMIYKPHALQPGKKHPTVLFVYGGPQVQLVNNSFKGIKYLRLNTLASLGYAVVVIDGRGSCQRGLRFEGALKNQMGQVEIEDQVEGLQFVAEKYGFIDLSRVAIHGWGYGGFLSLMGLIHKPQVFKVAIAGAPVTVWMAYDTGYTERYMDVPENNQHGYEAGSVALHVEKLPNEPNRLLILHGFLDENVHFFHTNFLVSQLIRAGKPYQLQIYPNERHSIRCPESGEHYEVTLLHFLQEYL

T1 sequence (Q86TI2 whole entry, canonical isoform): as the sequence (Q86TI2 whole entry S730G) above, with G730S counted along it

B1: synthetic Syk (1–31) peptide covering the first 31 amino acids of full-length Syk (peptide)
peptide: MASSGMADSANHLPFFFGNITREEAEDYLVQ
notes: tyrosine kinase Syk, residues 1–31; also called Syk N-terminus peptide (1–31); Syk amino terminus peptide 1–31; source: synthetic peptide (custom-made by GenScript, >80% purity)
[1]
  Kd: 52 µM
[2]
  Kd: 284 µM

B2: Syk△MA (3–31) peptide (peptide)
peptide: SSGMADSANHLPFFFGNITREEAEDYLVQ
notes: tyrosine kinase Syk, residues 3–31; also called Syk (3–31); source: synthetic peptide (custom-made by GenScript, >80% purity)
[1]
  Kd: 156 µM
